Test results as given in the domain aggregation screens of Martell et al. (2025).

Assay: soluble fraction after stress (log2 fold change); higher = more stays soluble; pooled small domains, quantitative proteomics
Conditions: stress: 50 degC
Outline: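 The stress applied to every library was 50°C. These custom libraries of small protein domains were pooled and measured at high throughput with quantitative proteomics as the read-out. Aggregation propensity is expressed as the base-two logarithm of the fold change in how much of each protein remains soluble. The higher the value, the more of that protein stays in solution.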

| Sequence | soluble fraction (log2) |
| --- | --- |
| HMNKRYKVQVTTDNLKIRKGAGTSYPVVGHITDKGTYTIVETSGKWGKLLSGAGWIYLSYTKK | -1.76 |
| HMQLVGSSAAVLIPAPAGGLGKIRLEFRGQTIDLIAKATDGGALIEGGAVTIVDVRDGQADVSV | -0.552 |
| HMLKLPVEYLNLKYQLMHATSLDKPNNLMKLDEKLGKIIDVYYDDLPVDEQRVVDILQSKLYSY | -0.996 |
| HMAGTAFPVRIMLKGIDRIGLLNEITGYISVAMGVNMRKLNLSTEDGIFEGYIDMLVHDRTVLESMIDNL | -0.381 |
| HMQEVKVRLKPDYLGEVLIKVISDKGELKAELFVSNSQVRSLLRAYAVEFQNQIRDQGYNFSEINVYR | -0.551 |
| HMNKNIKIPNISNLSREDAESVLKESGISVSTEIKEVESDTIEKGKVVKTEPSIGSTVKQGRTITIYISSG | 0.0574 |
| HMTMMTFGEKLQNARKGAGLSQEQLAEKLSVSRSAVAKWENDNGMPDIDNLKAIAQLLDVSIDYLLEN | 0.133 |
| HMNKTLTEQIYDELKSAIIELELKPGEFVTEEYLAEQLGVSRTPLKSAISKLIFEGLMAYEVGKGTYIS | -0.747 |
| HMNERIKSLRKALGLTQQEFADKLGISRGNIGAYEVGKNAPSDAVISLIVRIFNTNENWLRTGEGEM | -0.145 |
| HMPAFWILAVLAGGRRHGYQIMREAALSSEGLVTLKPTTLYAALERLERDGAIQQDGEEIVDGRVRRYYRI | 0.259 |
| HMGYTPGVVIQKSAILEEINQPDLALGMMLEAVKKDSQNLDILNRLVTLLIDQKKNEDAEIYNKKIIT | 0.0254 |
| HMHPEITLHPVRANIYSISVKNATSMEIYSVSGQLVGIRELKEGTNTLDLTGYINGVYIVNLQNKAFKLVK | -1.94 |
| HMEQAMIVILKENPDRRQLEFLTGWLQKQQIGIHISEGAHQTVLGLVGDATRLDIDMLKQMEIVEDVKRVQ | -0.0829 |
| HMDIRLMPGTVLTREYQGIEHRVTVAQDGQYEFEGRRYPSLSMIAREITGTRWSGPLFFGVK | -0.657 |
| HMENTELIELRKKRNLSQSQLAELLDLTRNQIANYESGRRIPDQETKQIIAGFFEMPAEEIFAG | 0.0435 |
| HMTIDETKKQQVKDGLKDIPGVTVEFVGDKAVLKGAVTDANRVKIMQIVMAAKVLSDASGLTSK | -0.11 |
| HMYEDNERSLVPIVQNFLKEKKILLSNQSINLIVQRSGGDRINLYNELQKIESFSKNQKKIDIGDIIKLTN | -0.286 |
| HMSLSVEESYKLLDISPSAGDEEITKKFRLLALKYHPDKNRSKIEWANNIMSRLNQAYSVIMSSRFESNAE | -0.476 |
| HMGQTYTITINPTPADAKVIIDGVATNSVEAIDGRTLIWSVSKPGYLTKSGNYTVTGKNETLNIVLKEDPD | 0.087 |
| HMGSFISADEALAKALSHAGLDQSAIRELEMDSELDDDVPHYSIDFKSGNLEYEYEISATDGSVLKFEQD | 0.105 |
| HMRQYTPEQLETAVLVLEEVRQGRRLDRALRSHPMPDGRLIAKHVLVAAYRKLVAEGTWKEDPEFLSRIRM | -0.237 |
| HMDGTEVTTEPPGAQVEYEGKQFGPTPARIPGLVAGKSLHITLPGYLEVKPKIKAVPKDGEPLSFTLTAI | 0.0823 |
| HMTVADMQQKANVKRRNSNSHEAILDATVKLLGSSGYIDFSIEKVASQAGVGKQTIYRWWPSRADLVLEVW | -0.109 |
| HMSVDIIPGKADQKVRLIHDPAIVGVTTGGVKTAGPHTLIQIELGPNERPYKRLSLLELIPEG | -0.115 |
| HMELPVNSIRVPDVVGLSLREAMQAMTDAGVPWQSVQAKGVGFVSRQSPEAGTVTQLRRVRLELKLF | -2.58 |

| Sequence | soluble fraction (log2) |
| --- | --- |
| HMKVMTNAELGRIIKEARIARRMTQSEVVGDFITRNMLSQIENGNAAPSMRTLQYLMDVLDIHINIE | -2.58 |
| HMAEVHVDGVTYQFSNPEQAVKFARKIAKELGLKVEVHGETVHVK | -0.156 |
| HMADPVTPQDLIRWSEALAGIARTGLGFTQSLYEQERFEEVLAVAADMRVAAGSSYNPDDLVHEWMKSVG | -0.292 |
| HMLFYSDLVRLISFAEATLGKNEFETWYMSHHQGMKYTEIAIALGISVRTVEDRIARTKNHFRKI | -0.494 |
| HMLQSGSDYLIEQVRMYTATGQREYMDNYFEELNTTRRRENALEYFAEHYGDNDAFTLLKSAMTTSQN | -0.428 |
| HMQQLTQRELTLLRLLANGYNNRQIAEQLQLAESTVKNNLSALFQKIGVRDRTQAVLFAISQGLVP | -0.656 |
| HMAITLEQFLSVNPHIRNNLYGNAVELVKDKDFSVLSDKLKASSKWANEPSLYKILSHYDEIIS | 0.063 |
| HMEKDKGTILKEARIKKGLTQEQLANNINYTRQYISKWENNISLPKDIQTLKKISNLLSIPLKELLPEDYL | -0.109 |
| HMAKSMRHLIVPSRETSLWRDKLSTNGWLSKGYGIHNLDDYRGIPLNETAPKIIEGLEITELEPIS | 0.0863 |
| HMDDFPLKRGSKGNRVTLLQNALVKKYGAGILPKYGVDGMFGKEVEAALVHAKIPTTINEANYTKIV | 0.0897 |
| HMEDVDTAALEKVIATAKGLNKNDYTATTWTTMQAALTNAEKALEAKKSQTSVDEAAKTLQAAIDGLKKAS | 0.215 |
| HMSRSLLAALEKLRESHTGSLPASVLSSAQRRSLESFAQTTKSVQMRPSGRGVVFAIINPEVVDKHWRELS | -0.497 |
| HMGYSSKISELLTKYNMNASELAQKVGVPPTTIYSIIKRDSKKADIEVLIKIAKLFNVPVEYF | -0.99 |
| HMIEMGNRIRTLRKRRVGSQSEFAEKLDVSVVTISRIENGMTKIDAELLIKMSEVLQVPVNIILGM | -3.22 |
| HMRSNQKVSQIAISQVLPGMVTAKNVYSRNDQLILNRETTLDSTKIAKIMFYAIESIYVYEPE | -1.9 |
| HMKSKHENLIDGLLKMISSMKPHDRLTPERQLAEEWAVSRMTLRRALEVLQFQGKIYTVPSSGLFVAEPK | -2.29 |
| HMAQVVMPNVVGKTEKDATATLEGKNLKVNVEYNLDATSDDGIVKEQSIKSGENIDEGTEITLKVNKV | -1.07 |
| HMNPEDLSGVRKAAILLLTMDDEVTKDVMKGLDEEEIEAIGKEITNLKLIPDHVVHRVQEEFMTKVSK | 0.0913 |
| HMTIGPALAIGGNKVEMTQQGKIQVTNPQGKIKTLSQDEFKKQLVKNADKIEAGQDFEFKKD | 0.263 |
| HMTLSAPMPGTVLKIHVKEGQRVRKGQTLVVLEAMKMEHRIQAPKAGEVTNLHFSEGDRVDMGEILVEIG | 0.0894 |
| HMNSHQNELDNALTEAHTASRRLLEGTDEYLDLSSQPAYIRRLQHLLAQKYNLGSLSSGVEPNRHIRLLQ | -0.143 |
| HMNEKLNEYLNQVKAYLNTSDNKEDIIKELEAVVLEKAEKKYGQITDESISKILSEFGSPAEVAKEYS | 0.129 |
| HMINLDYILELIFEKNNKTKDKTALIEEIRGVIRASVGNRAKESLIVDFINDTDLDTITDKASIIESFFEY | -3.51 |
| HMAPEPFIVQITASSLNVRKGPGTSYAVAQTVSKGQVFTIVQQQGGWGKLKSGAGWISLKYTAR | -1.36 |
| HMKKMEEEFALFNAWVDRRLGIPLAAYKENQMQRRILTIMENSGAKTLREYQQLIEGDEGVRAAFLAHIT | -1.1 |

| Sequence | soluble fraction (log2) |
| --- | --- |
| HMKRDRLYGITIYLLNHGRTSAKTLAEYFEVSVRTIQRDMDALSMAKIPIIAYPGSDGGYEIQEGYRL | -3.1 |
| HMKEKIIKEPYDLFTTDKIGQALEVQALLARQGIKVQRRVDGTKSTLFLENYTQSEKDQALLAVVRSGIV | 0.161 |
| HMQTGRREALEAQLRETGGEAMLARLREIDPEAAARLHPADEKRVIRALEVYEETGKTITQHNLETKAVPP | 0.239 |
| HMKDSIQIPNVVGMTIKDAQSQYGKSFSIIEQNRTESTKPAGTILEQTPAGGDTVSKRDNIIIRVVVSLG | 0.132 |
| HMSEILQLINKIDKKLEKGYTFANISRNHYEKIYKEEILNLYKTSKLKGEAEDSIKEVLESLLGDLRKP | 0.0222 |
| HMGAAITEAEAKQIALDHAGVSESETERMRVKLGRDDGVQEYEVNFYVGNREYDYDINAATGEIRSHDSE | 0.0811 |
| HMKDLQAISERMEEIISFAKANDNEISLFIVQDIIKNKKTGIDEDLLNMALYQIKEQGIKVLPA | -0.0793 |
| HMGTLNLSQAYREWGMAEIEANRDYYGPVRFDDIAFQMSPAGQQLQARFVASYADRLHDAIEGEL | -0.304 |
| HMSSLREQVADALRAHLVSGRMRPGVLYSAPKLAAEFGVSATPVREAMLDLVSEGLVDVVRNKGFRVT | -0.344 |
| HMDESLLDYALREIKARIQNGTYPPGTKLSTQEISDSLGISRTPVVAAINRLVAQGVAEAIPRRGTIVAR | 0.0188 |
| HMEVLSYYGSRGQEVVNIQTKLKQWGYYKGNIDGIFGNLTYQAVREFQRKNGLKVDGIVGPETLAALGLPT | -0.187 |
| HMVSPLEKSQSFGSFEISREFARTLGLTSARNWENWAASDSRPINIPYSPNVFYKNKGWIDWSDWLGTE | -0.286 |
| HMDKEVLYVTVNDKKVKLDGKNHIFIDIFNYIDFDIKKPNGSIVLKLNGKNAGYMDEIKDGDKIEIYWDK | 0.0969 |
| HMATAATGIINNNYVNVRSGPATTYNIVGRLDQGSSIEILGSKNDWYQIKTKQLNGWVKNDFINLQK | 0.00222 |
| HMYKMKDRIKKIMEMQRTTQQDFADQLKIAPATLSSIFTGRTRPTLAIVDAIKSRFPQISTDWLMFGKGDM | -0.219 |
| HMQASPADLLSDRELEVFQLTGEWKTTRQIAQELHLSVKTIEYYREQIKRKLNLKSAAELTQHATAWVQRG | -0.361 |
| HMGIYFIIAAKNQENNIEEFIRTTLFRIVYGKEESINNITLVDLKSKDNTKNIMEEIARENENVKV | -0.335 |
| HMSIGLEELVGSHGEAITDLRPAGQVSIAARRISAVSEGDFINKGDSVEVLSVEGYRVMVRKLET | 0.00441 |
| HMAAELQALSVRELEVLDQLAGGASNREIAQRLYISENTVRNHVHSILTKLKLQNRTQLVGMT | -0.239 |
| HMQQELEEMESGNLVRTAIDSLPINQRTAFILSAYEELPIKEIASIMNRSEGAVEQLLQRAKMNLKKKIK | 0.347 |
| HMSADDLVSRTQAIVAELKDLEGPLLPILHSVQEAFGHVPDEVKPVIAEALNLSRAEVHGVVSFYHDFRAH | -0.112 |
| HMEQVTMSNFLDKWGTSTKSPNAWYTSLSPMQKAEAKLLKEESGLTWNKWYEKNIYVGDGTN | 0.249 |
| HMSTMNRLPRHEQILKLVRANGFMPIEELARLLDVTPQTIRRDINTLSEENLLRRFHGGAALGPSVE | -0.0842 |
| HMDTLTRAMVWTIIARAEGVDTTGGATWYAKAQEWVTAKGISDGENPNAAITRQELVTMLYRLAGEPAV | -2.78 |
| HMVEMPEVGVKVRIEVESHNGSTNFEGIVLHPASKGHLTLKLINGYNASYLIEEIRNLEIIDSS | -0.271 |
